According to patent publication US20220193114A1:

Target: MuSK (wild type, full length, mouse) (mouse) (UniProt Q61006)
Experiment: cell-based or functional assay

UniProt Q61006, sequence (Q61006 22-868): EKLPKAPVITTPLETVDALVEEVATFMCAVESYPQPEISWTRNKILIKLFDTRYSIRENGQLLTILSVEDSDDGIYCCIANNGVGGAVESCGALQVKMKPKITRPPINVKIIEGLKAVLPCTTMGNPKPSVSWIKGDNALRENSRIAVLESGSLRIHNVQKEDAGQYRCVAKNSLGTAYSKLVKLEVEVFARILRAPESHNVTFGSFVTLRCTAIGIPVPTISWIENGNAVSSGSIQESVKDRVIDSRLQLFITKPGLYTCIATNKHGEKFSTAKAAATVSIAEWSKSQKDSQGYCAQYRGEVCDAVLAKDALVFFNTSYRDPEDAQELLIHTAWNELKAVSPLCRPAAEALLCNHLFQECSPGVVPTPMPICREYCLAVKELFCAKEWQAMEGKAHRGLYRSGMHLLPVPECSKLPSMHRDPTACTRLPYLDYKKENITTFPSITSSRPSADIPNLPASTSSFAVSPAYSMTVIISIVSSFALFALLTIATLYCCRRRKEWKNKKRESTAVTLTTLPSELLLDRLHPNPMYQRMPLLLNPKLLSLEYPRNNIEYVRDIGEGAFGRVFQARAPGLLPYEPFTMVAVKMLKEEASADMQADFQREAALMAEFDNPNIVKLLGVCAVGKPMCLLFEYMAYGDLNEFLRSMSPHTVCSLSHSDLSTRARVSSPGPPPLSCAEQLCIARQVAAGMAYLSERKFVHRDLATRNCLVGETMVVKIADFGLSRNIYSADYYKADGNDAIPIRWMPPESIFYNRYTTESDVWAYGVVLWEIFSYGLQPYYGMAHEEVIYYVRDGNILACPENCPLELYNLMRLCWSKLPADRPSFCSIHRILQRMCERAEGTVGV

transcription of Wnt11 in response to BMP4 (qRT-PCR, primary myotubes), WT response relative to ΔIg3-MuSK response (fold (WT response / ΔIg3-MuSK response)): 2.2 | transcriptional response of Dok7 to BMP4 (qRT-PCR, primary myotubes), WT response relative to ΔIg3-MuSK response (fold (WT response / ΔIg3-MuSK response)): 1.6
Substance: BMP4 (ligand)
